Key:
[1] = molecular target: c-Src SH2; test: SH2 binding enrichment of the phosphorylated peptide, bacterial display (enrichment ratio); higher = better substrate or ligand; peptides without Tyr show the background
[2] = molecular target: SHP2-C SH2; test: as above
[3] = molecular target: Grb2 SH2 (UniProt P62993); test: as above
[4] = molecular target: FGFR3 (UniProt P22607); test: phosphorylation enrichment, bacterial display (enrichment ratio); higher = better substrate or ligand; peptides without Tyr show the background
[5] = test system: c-Abl (mouse); test: as above
[6] = molecular target: FGFR1 (UniProt P11362); test: as above
Chain of FGFR1 (P11362 whole entry, looked up): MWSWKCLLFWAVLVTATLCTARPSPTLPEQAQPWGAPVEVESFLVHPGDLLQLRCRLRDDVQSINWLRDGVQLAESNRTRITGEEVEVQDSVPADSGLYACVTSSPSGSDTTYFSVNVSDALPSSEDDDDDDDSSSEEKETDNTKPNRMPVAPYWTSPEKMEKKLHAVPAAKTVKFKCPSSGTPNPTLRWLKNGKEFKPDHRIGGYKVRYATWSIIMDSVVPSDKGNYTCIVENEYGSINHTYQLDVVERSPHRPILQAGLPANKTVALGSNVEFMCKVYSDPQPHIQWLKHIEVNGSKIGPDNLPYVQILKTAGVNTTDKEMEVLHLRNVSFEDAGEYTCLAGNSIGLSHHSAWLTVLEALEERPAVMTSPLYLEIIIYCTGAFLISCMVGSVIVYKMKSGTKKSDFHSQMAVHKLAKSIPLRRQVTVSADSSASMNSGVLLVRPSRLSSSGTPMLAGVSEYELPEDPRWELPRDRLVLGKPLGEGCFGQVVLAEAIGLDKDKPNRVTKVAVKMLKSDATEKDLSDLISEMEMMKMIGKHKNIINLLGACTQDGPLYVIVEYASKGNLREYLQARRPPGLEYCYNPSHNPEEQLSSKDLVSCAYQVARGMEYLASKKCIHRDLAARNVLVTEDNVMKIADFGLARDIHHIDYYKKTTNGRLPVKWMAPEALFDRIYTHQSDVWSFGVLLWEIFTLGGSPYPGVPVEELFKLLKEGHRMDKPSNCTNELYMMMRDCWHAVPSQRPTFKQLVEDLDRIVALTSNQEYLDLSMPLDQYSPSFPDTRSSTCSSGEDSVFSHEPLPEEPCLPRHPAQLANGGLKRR

[7] = molecular target: EPHB1 (UniProt P54762); test: as above
Chain of EPHB1 (P54762 whole entry, looked up): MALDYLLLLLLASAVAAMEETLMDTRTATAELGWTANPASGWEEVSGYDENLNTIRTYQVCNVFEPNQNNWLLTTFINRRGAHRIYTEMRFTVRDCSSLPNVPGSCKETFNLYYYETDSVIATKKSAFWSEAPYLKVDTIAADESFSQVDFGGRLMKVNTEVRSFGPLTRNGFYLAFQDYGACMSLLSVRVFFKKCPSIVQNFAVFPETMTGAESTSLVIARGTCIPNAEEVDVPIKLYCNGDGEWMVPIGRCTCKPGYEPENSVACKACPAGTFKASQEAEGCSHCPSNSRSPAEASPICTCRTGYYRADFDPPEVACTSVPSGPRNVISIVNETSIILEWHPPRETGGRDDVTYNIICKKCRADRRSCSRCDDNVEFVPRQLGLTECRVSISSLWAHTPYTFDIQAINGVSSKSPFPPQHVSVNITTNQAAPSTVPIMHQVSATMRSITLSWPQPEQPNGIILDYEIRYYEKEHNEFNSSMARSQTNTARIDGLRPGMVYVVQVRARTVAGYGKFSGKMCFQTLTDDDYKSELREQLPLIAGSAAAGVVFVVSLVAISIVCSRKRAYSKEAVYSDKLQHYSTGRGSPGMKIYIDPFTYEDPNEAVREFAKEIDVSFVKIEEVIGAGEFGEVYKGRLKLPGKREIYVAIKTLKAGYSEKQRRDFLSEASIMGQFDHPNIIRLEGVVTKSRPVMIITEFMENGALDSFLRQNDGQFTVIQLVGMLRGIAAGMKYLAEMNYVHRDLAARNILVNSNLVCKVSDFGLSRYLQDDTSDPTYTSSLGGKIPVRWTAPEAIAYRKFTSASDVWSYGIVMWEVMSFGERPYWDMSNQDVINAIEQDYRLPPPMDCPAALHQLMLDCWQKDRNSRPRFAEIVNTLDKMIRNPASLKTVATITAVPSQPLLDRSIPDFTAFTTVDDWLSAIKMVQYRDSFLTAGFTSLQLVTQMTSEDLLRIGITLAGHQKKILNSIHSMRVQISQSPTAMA

[8] = test system: c-Src; test: as above
[9] = test system: Fer (mouse); test: as above
[10] = test system: AncSZ; test: as above
[11] = molecular target: MERTK (UniProt Q12866); test: as above
Chain of MERTK (Q12866 whole entry, looked up): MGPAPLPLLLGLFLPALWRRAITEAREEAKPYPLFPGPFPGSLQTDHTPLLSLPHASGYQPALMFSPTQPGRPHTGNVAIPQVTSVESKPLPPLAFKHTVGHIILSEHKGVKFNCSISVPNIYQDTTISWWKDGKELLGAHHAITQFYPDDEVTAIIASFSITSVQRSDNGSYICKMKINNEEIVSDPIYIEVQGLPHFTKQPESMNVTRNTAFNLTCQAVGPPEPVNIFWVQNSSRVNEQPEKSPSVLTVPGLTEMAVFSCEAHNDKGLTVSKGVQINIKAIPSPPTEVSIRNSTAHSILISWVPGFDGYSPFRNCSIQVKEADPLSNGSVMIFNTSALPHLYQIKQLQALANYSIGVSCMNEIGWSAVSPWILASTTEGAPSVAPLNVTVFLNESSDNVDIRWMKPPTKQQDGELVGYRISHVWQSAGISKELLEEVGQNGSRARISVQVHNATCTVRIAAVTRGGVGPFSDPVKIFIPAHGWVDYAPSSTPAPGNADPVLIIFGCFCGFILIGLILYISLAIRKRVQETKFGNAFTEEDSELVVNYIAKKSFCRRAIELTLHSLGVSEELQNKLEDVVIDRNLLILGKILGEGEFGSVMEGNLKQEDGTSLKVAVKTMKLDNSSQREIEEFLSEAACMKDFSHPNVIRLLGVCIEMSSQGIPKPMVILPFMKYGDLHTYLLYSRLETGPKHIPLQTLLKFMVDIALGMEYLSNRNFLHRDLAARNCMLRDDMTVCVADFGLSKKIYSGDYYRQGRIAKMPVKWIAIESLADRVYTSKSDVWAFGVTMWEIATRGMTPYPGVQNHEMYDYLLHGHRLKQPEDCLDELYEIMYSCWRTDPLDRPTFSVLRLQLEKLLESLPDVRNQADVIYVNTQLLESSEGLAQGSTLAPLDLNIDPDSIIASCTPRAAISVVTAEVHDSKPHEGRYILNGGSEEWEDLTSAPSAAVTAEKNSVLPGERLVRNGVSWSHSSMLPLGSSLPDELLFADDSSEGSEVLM

[12] = molecular target: Fyn (UniProt P06241); test: as above
[13] = molecular target: EPHB2 (UniProt P29323); test: as above
[14] = molecular target: Hck (UniProt P08631); test: as above
[15] = molecular target: Jak2 (UniProt O60674); test: as above
Chain of Jak2 (O60674 whole entry, looked up): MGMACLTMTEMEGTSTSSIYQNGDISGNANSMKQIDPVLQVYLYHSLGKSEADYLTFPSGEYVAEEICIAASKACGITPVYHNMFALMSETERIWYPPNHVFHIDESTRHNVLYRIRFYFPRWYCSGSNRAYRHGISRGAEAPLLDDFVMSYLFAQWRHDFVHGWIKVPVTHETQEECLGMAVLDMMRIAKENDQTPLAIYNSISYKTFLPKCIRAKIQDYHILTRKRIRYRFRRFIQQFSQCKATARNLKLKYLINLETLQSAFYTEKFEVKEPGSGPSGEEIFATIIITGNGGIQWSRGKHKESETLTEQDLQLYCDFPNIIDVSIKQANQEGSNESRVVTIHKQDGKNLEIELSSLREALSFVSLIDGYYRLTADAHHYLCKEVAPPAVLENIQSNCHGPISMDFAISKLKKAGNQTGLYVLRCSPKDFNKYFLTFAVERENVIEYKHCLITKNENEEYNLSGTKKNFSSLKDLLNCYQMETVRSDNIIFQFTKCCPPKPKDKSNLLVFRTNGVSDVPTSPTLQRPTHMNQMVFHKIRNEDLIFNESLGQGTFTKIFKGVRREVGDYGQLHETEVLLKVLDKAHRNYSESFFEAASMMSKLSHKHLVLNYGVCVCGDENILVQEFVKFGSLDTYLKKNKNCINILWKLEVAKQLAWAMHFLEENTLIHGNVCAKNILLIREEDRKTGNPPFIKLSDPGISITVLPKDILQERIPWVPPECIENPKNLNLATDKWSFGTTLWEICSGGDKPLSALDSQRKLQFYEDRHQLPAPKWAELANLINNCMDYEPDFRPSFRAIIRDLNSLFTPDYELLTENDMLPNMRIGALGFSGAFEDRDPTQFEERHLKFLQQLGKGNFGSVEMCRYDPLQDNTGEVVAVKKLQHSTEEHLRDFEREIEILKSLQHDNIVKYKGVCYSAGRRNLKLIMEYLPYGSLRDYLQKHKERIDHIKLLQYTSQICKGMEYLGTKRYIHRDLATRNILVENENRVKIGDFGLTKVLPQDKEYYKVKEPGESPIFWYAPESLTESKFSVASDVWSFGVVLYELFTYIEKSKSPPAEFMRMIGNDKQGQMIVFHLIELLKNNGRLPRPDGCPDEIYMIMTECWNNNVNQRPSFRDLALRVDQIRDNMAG

[16] = molecular target: Fes (UniProt P07332); test: as above
Chain of Fes (P07332 whole entry, looked up, the tested form may be a part): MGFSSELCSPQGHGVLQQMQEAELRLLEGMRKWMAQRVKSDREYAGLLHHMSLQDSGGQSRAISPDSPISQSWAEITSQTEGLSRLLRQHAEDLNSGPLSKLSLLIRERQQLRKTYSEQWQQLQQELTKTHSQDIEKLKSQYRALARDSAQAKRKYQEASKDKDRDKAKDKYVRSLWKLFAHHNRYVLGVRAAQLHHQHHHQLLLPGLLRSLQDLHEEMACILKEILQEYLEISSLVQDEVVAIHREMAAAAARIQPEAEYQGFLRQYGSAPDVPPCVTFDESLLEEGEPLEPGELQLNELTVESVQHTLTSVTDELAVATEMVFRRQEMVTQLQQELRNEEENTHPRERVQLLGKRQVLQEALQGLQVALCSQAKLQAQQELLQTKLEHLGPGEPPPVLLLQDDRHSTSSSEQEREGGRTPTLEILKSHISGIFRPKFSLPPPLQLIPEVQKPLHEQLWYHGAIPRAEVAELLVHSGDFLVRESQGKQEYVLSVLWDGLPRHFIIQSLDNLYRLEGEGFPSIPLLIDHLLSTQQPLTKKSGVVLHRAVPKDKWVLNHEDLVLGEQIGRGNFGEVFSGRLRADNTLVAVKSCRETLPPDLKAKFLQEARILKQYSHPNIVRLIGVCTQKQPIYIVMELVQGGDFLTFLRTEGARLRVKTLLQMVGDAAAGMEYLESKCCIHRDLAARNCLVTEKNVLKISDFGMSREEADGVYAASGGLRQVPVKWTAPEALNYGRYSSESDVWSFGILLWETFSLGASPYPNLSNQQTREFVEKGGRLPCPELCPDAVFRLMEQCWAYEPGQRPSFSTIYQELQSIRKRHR
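Throughout, for SH2 binding enrichment of the phosphorylated peptide, bacterial display: peptide library displayed on the E. coli surface as eCPX fusions, selected cells deep-sequenced, score is each peptide's frequency after selection divided by its frequency in the input.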
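Throughout, for phosphorylation enrichment, bacterial display: 11-residue human phosphosite peptides and single-mutation variants displayed on the E. coli surface, counted by deep sequencing, each peptide's frequency after selection divided by its frequency in the unselected input library; frequency after pTyr selection over input frequency; kinase dosed for 20-30% of maximal phosphorylation in three min.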

Chain of Grb2 SH2 (P62993 whole entry, looked up): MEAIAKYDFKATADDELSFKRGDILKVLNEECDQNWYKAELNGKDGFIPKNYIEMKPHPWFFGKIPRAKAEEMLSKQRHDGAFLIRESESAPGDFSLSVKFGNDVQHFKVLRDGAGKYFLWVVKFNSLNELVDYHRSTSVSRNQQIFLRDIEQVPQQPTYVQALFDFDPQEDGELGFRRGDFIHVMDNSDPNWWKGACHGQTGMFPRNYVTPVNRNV

Sequence	SH2 binding enrichment [1]	SH2 binding enrichment [2]	SH2 binding enrichment [3]	phosphorylation enrichment [4]	phosphorylation enrichment [5]	phosphorylation enrichment [6]	phosphorylation enrichment [7]	phosphorylation enrichment [8]	phosphorylation enrichment [9]	phosphorylation enrichment [10]	phosphorylation enrichment [11]	phosphorylation enrichment [12]	phosphorylation enrichment [13]	phosphorylation enrichment [14]	phosphorylation enrichment [15]	phosphorylation enrichment [16]
AACQHYGVHTC [NR4A2_Y275_R278H]	0.584	0.946	0.903	0.585	0.534	0.413	0.445	0.345	0.347	0.624	0.406	0.433	0.471	0.443	0.432	0.63
AAGGRYFGLVG [HARS1_Y363_D364Y_YF]	0.608	0.828	1.06	0.471	0.626	0.375	0.312	0.461	0.389	0.516	0.395	0.396	0.377	0.354	0.575	0.764
AALLNYKAGRD [GRIN2A_Y737_V734L]	0.523	0.762	0.861	0.494	0.454	0.508	0.409	0.472	0.384	0.623	0.468	0.494	0.465	0.527	0.508	0.687
AAVDEYLEHRR [FAM221A_Y17_Y20H]	0.418	0.614	0.786	0.695	0.778	0.467	0.562	0.389	0.421	0.96	0.388	0.48	0.581	0.452	0.875	1.03
AAVPAYDKIRV [STXBP2_Y401]	4.85	0.503	0.803	0.541	0.569	0.321	0.372	0.452	2.02	0.64	0.48	0.344	0.355	1.36	0.874	0.714
ADARMCGVLPW [PLP1_Y207_Y207C]	0.477	0.527	0.751	0.671	0.746	0.489	0.606	0.487	0.44	0.93	0.436	0.436	0.524	0.488	1.1	1
ADARMYGVLLW [PLP1_Y207_P211L]	0.327	0.519	0.573	0.751	0.741	0.591	0.559	4.01	0.616	1.12	0.544	3.59	0.662	2.42	1.03	1.39
ADKAAYLQSLN [MYH2_Y389]	0.553	0.8	0.86	0.572	0.546	0.506	0.458	0.45	0.539	0.779	0.476	0.536	0.561	0.516	0.777	0.789
AEDKPYAELWM [MPI_Y46]	2.15	1.21	0.778	1.34	0.854	1.45	0.868	3.47	10.8	1.38	1.4	2.27	0.729	1.44	1.09	1.34
AEEEIYGIFGA [SRCtide_2014]	0.494	0.584	0.775	0.89	3.69	0.615	1.36	4.49	3	2.1	3.88	5.63	1.36	4.39	1.35	1.31
AESPEYVHMYT [FAM111A_Y511]	0.693	0.586	0.768	1.26	0.825	1.92	0.486	0.531	0.467	1.34	0.413	0.423	0.491	0.469	0.962	1.01
AFLQTYAHEVS [PCDHGA5_Y753_S754A]	0.608	0.903	0.755	0.617	0.693	0.621	0.455	0.474	0.521	0.896	0.503	0.49	0.565	0.506	0.786	0.985
AFSLKYDQQTQ [SYTL4_Y366_E367D]	0.555	0.64	0.824	0.784	0.716	0.539	0.484	0.48	0.485	1.03	0.406	0.522	0.69	0.614	1.03	1.14
AGDGRYEVLFL [SEMA3F_Y478_A474G]	7.93	0.573	0.692	0.786	0.758	0.533	0.658	0.545	4.36	0.94	1.08	0.455	0.667	0.772	0.927	1.02

Source: the supplement of paper PMC10065799, “High-throughput profiling of sequence recognition by tyrosine kinases and SH2 domains using bacterial peptide display” (eLife, 2023)
